Source: paper PMC8405986

Key:
[1] = target: NS3-4A protease Q80K-A91T, single-chain proteolytic domain (NS4A21-32-GSGS-NS3 3-181) (hepatitis C virus)
[2] = target: NS3-4A protease WT, single-chain proteolytic domain (NS4A21-32-GSGS-NS3 3-181) (hepatitis C virus)
[3] = target: NS3-4A protease Q80K-A91S-S174N, single-chain proteolytic domain (NS4A21-32-GSGS-NS3 3-181) (hepatitis C virus)
[4] = target: NS3-4A protease Q80K, single-chain proteolytic domain (NS4A21-32-GSGS-NS3 3-181) (hepatitis C virus)
[5] = target: NS3-4A protease Q80K-A91T-S174N, single-chain proteolytic domain (NS4A21-32-GSGS-NS3 3-181) (hepatitis C virus)
[6] = target: NS3-4A protease Q80K-A91S, single-chain proteolytic domain (NS4A21-32-GSGS-NS3 3-181) (hepatitis C virus)
[7] = target: NS3-4A protease Q80K-S174N, single-chain proteolytic domain (NS4A21-32-GSGS-NS3 3-181) (hepatitis C virus)

Substance: viral polyprotein substrate derived from the NS4A/4B cleavage site (SensoLyte 520 HCV; Anaspec) (peptide)
- KM (μM) of cleavage of the NS4A/4B FRET peptide substrate by purified protease (FRET-based protease assay) [1]: 0.48 µM
- KM (μM) of cleavage of the NS4A/4B FRET peptide substrate by purified protease (FRET-based protease assay) [2]: 2.71 µM
- KM (μM) of cleavage of the NS4A/4B FRET peptide substrate by purified protease (FRET-based protease assay) [3]: 8.16 µM
- KM (μM) of cleavage of the NS4A/4B FRET peptide substrate by purified protease (FRET-based protease assay) [4]: 1.44 µM
- KM (μM) of cleavage of the NS4A/4B FRET peptide substrate by purified protease (FRET-based protease assay) [5]: 0.67 µM
- KM (μM) of cleavage of the NS4A/4B FRET peptide substrate by purified protease (FRET-based protease assay) [6]: 0.56 µM
- KM (μM) of cleavage of the NS4A/4B FRET peptide substrate by purified protease (FRET-based protease assay) [7]: 0.14 µM
